Results on 20 molecules are retold here after patent US20250297255A1 (ARSENAL BIOSCIENCES, published 2025).

First the molecules themselves.
B1: TMPRSS4 Ab37 scFv (VH-VL) (scFv)
scFv: EVQLLESGGGLVQPGGSLRLSCAASGFTFSSYAMHWVRQAPGKGLEWVSYISSSGSTVYYADSVKGRFTISRDNSKNTLYLQMNSLRAEDTAVYYCARVSNVTPRSGFGYWGQGTLVTVSSGGGGSGGGGSGGGGSDIQMTQSPSSLSASVGDRVTITCRASQSISRYLNWYQQKPGKAPKLLIYSASTLQSGVPSRFSGSGSGTDFTLTISSLQPEDFATYYCQQAHSFPPSFGQGTKLEIK
notes: on monoclonal phage in the screen
B2: TMPRSS4 Ab31 scFv (VH-VL) (scFv)
scFv: QVQLVQSGAEVKKPGSSVKVSCKASGYTFRGSGISWVRQAPGQGLEWMGIIYPADSETRYSPSFQGRVTITADESTSTAYMELSSLRSEDTAVYYCARESSSWDYFDYWGQGTLVTVSSGGGGSGGGGSGGGGSEIVMTQSPATLSVSPGERATLSCRASQSVRSYLAWYQQKPGQAPRLLIYGASTRATGIPARFSGSGSGTEFTLTISSLQSEDFAVYYCQQHGSLPLTFGQGTKVEIK
notes: as for B1
B3: TMPRSS4 Ab33 scFv (VH-VL) (scFv)
scFv: QVQLVQSGAEVKKPGASVKVSCKASGYTFSNYYMHWVRQAPGQGLEWVGWMNPKSGNTGYAQKFQGRVTMTRDTSTSTVYMELSSLRSEDTAVYYCARGRTWIQSSLGYWGQGTLVTVSSGGGGSGGGGSGGGGSDIQMTQSPSSLSASVGDRVTITCRASQYISRWLAWYQQKPGKAPKLLIYGSSTLQSGVPSRFSGSGSGTDFTLTISSLQPEDFATYYCQQYYSTPFTFGPGTKLEIK
notes: as for B1
B4: TMPRSS4 Ab43 scFv (VH-VL) (scFv)
scFv: QVQLVQSGAEVKKPGASVKVSCKASGYTFIGYYMHWVRQAPGQGLEWMGRINPNSGETNYAQKFQGRVTMTRDTSTSTVYMELSSLRSEDTAVYYCARVRVRGVIHPGFDPWGQGTLVTVSSGGGGSGGGGSGGGGSDIQMTQSPSSLSASVGDRVTITCQASQDISNYLNWYQQKPGKAPKLLIYAASSLQSGVPSRFSGSGSGTDFTLTISSLQPEDFATYYCQQSYSTPVTFGPGTKVDIK
notes: as for B1
B5: TMPRSS4 Ab36 scFv (VH-VL) (scFv)
scFv: EVQLLESGGGLVQPGGSLRLSCAASGFTFSSRAMSWVRQAPGKGLEWVSRINYDGSATTYADSVKGRFTISRDNSKNTLYLQMNSLRAEDTAVYYCARGITIFGVFDYWGQGTLVTVSSGGGGSGGGGSGGGGSDIQMTQSPSSLSASVGDRVTITCRASQSISTWLAWYQQKPGKAPKLLIYRASNLQSGVPSRFSGSGSGTDFTLTISSLQPEDFATYYCQQSYSTPLTFGGGTKVEIK
notes: as for B1
B6: TMPRSS4 Ab44 scFv (VH-VL) (scFv)
scFv: QVQLVQSGAEVKKPGASVKVSCKASGYTFRNYYIHWVRQAPGQGLEWMGRINPNSGGTNYAQKFQGRVTMTRDTSTSTVYMELSSLRSEDTAVYYCARARIAVAVSGFGYWGQGTLVTVSSGGGGSGGGGSGGGGSDIQMTQSPSSLSASVGDRVTITCQASQDISNYLNWYQQKPGKAPKLLIYAASSLHSGVPSRFSGSGSGTDFTLTISSLQPEDFATYYCQESSSFPYTFGPGTKVDIK
notes: as for B1
B7: TMPRSS4 Ab41 scFv (VH-VL) (scFv)
scFv: QVQLVQSGAEVKKPGASVKVSCKASGGTFSSYAISWVRQAPGQGLEWMGWMNPNSGDTHYAQKFQGRVTMTRDTSTSTVYMELSSLRSEDTAVYYCAREGSSWYYDAFDIWGQGTLVTVSSGGGGSGGGGSGGGGSDIQMTQSPSSLSASVGDRVTITCRASQSISRWLAWYQQKPGKAPKLLIYAASTLQTGVPSRFSGSGSGTDFTLTISSLQPEDFATYYCLQHSSYPFTFGQGTKVEIK
notes: as for B1
B8: TMPRSS4 Ab32 scFv (VH-VL) (scFv)
scFv: QVQLVQSGAEVKKPGSSVKVSCKASGGTFSSYAISWVRQAPGQGLEWMGRINPSGGSTSYAQKFQGRVTMTRDTSTSTVYMELSSLRSEDTAVYYCARGRYSSSSWGQGTLVTVSSGGGGSGGGGSGGGGSDIQMTQSPSSLSASVGDRVTITCRASQSISTYLNWYQQKPGKAPKLLIYAASSLQRGVPSRFSGSGSGTDFTLTISSLQPEDFATYYCQQSYTTPLTFGGGTKVEIK
notes: as for B1
B9: TMPRSS4 Ab38 scFv (VH-VL) (scFv)
scFv: QVQLAQSGAEVKKPGASVKVSCKASGYTFTRHYIQWVRQAPGQGLEWMGWINPNSGNTGYAQKFQGRVTMTRDTSTSTVYMELSSLRSEDTAVYYCARGRQWLRGEYFQHWGQGTLVTVSSGGGGSGGGGSGGGGSDIQMTQSPSSLSASVGDRVTITCQASQDISRYLNWYQQKPGKAPKLLIYGASNLLSGVPSRFSGSGSGTDFTLTISSLQPEDFATYYCQQTHTTPYTFGQGTRLEIK
notes: as for B1
B10: TMPRSS4 Ab3 scFv (VH-VL) (scFv)
scFv: QVQLVQSGAEVKKPGSSVKVSCKASGYTFTSYDINWVRQAPGQGLEWMGGIIPIFGTTKFAQKFQGRVTITADESTSTAYMELSSLRSEDTAVYYCARDWYSSSWYNGDRGDWFDPWGQGTLVTVSSGGGGSGGGGSGGGGSDIVMTQSPLSLPVTPGEPASISCRSSGSLLHSNGYNYLDWYLQKPGQSPQLLIYAASSLQSGVPDRFSGSGSGTDFTLKISRVEAEDVGVYYCMQGTHWPGTFGQGTKVEIK
notes: as for B1
B11: TMPRSS4 Ab40 scFv (VH-VL) (scFv)
scFv: QVQLVQSGAEVKKPGASVKVSCKASGGTFSSYAISWVRQAPGQGLEWMGIINPRGGSTNYAQKFQGRVTMTRDTSTSTVYMELSSLRSEDTAVYYCAREGSSWYYDAFDIWGQGTMVTVSSGGGGSGGGGSGGGGSDIQMTQSPSSLSASVGDRVTITCRASQSISSYLNWYQQKPGKAPKLLIYAAYNLQSGVPSRFSGSGSGTDFTLTISSLQPEDFATYYCQQSYSIPFTFGGGTKVEIK
notes: as for B1
B12: TMPRSS4 Ab4 scFv (VH-VL) (scFv)
scFv: QVQLVQSGAEVKKPGASVKVSCKASGYFFTTYYLHWVRQAPGQGLEWMGVINPNSRLTSYAESFQGRVTMTRDTSTSTVYMELSSLRSEDTAVYYCEREMFPSSYGIDVWGQGTTVTVSSGGGGSGSGGGGSGGGGSDIVMTQSPLSLPVTPGEPASISCRSSQSLLHSNGYNYLDWYLQKPGQSPQLLIYAASTLQSGVPDRFSGSGSGTDFTLKISRVEAEDVGVYYCMQGTHWPPTFGQGTKLEIK
notes: as for B1
B13: TMPRSS4 Ab35 scFv (VH-VL) (scFv)
scFv: QVQLVQSGAEVKKPGASVKVSCKASGYTFTGYYMHWVRQAPGQGLEWMGKISAHSGETKYAQNVQGRVTMTRDTSTSTVYMELSSLRSEDTAVYYCARANYYGDYVNYYYGMDVWGQGTTVTVSSGGGGSGGGGSGGGGSDIQMTQSPSSLSASVGDRVTITCQASQDISNYLNWYQQKPGKAPKLLIYKASSLESGVPSRFSGSGSGTDFTLTISSLQPEDFATYYCQQTYTIPITFGQGTRLEIK
notes: as for B1
B14: TMPRSS4 Ab30 scFv (VH-VL) (scFv)
scFv: QVQLVQSGAEVKKPGASVKVSCKASGYTFTTYYMHWVRQAPGQGLEWMGWMNPNSGNTGYAQKFQGRVTMTRDTSTSTVYMELSSLRSEDTAVYYCARARTWLLSPFDYWGQGTLVTVSSGGGGSGGGGSGGGGSEIVMTQSPATLSVSPGERATLSCRASQSVGRYLAWYQQKPGQAPRLLIYGASTRATGIPARFSGSGSGTEFTLTISSLQSEDFAVYYCQHYDSSPMYTFGQGTKLEIK
notes: as for B1
B15: TMPRSS4 Ab39 scFv (VH-VL) (scFv)
scFv: QVQLVQSGAEVKKPGASVKVSCKASGGSFSGYAVSWVRQAPGQGLEWLGVINPSDSWTAFAQKFQGRVTMTRDTSTSTVYMELSSLRSEDTAVYYCAREREDDAFDIWGQGTTVTVSSGGGGSGGGGSGGGGSDIQMTQSPSSLSASVGDRVTITCRASQGIRNWLAWYQQKPGKAPKLLIYRASTLQSGVPSRFSGSGSGTDFTLTISSLQPEDFATYYCQQSYTTPFTFGQGTKLEIK
notes: as for B1
B16: TMPRSS4 Ab48 scFv (VH-VL) (scFv)
scFv: QVQLVQSGAEVKKPGASVKVSCKASGYTFTGYYLHWVRQAPGQGLEWMGWISAYNGNTNYAQNLQGRVTMTRDTSTSTVYMELSSLRSEDTAVYYCARHSYSGSYSTLPYYGMDVWGQGTTVTVSSGGGGSGGGGSGGGGSDIQMTQSPSSLSASVGDRVTITCRASQGISNYLAWYQQKPGKAPKLLIYTASTLFPGVPSRFSGSGSGTDFTLTISSLQPEDFATYYCQQSYSIPLTFGGGTKVEIK
notes: as for B1
B17: TMPRSS4 Ab42 scFv (VH-VL) (scFv)
scFv: QVQLVQSGAEVKKPGASVKVSCKASGYSFTSHYMHWVRQAPGQGLEWMGWMNPNSGNTGYAQKFQGRVTMTRDTSTSTVYMELSSLRSEDTAVYYCARLGQQLDYWGQGTLVTVSSGGGGSGGGGSGGGGSDIQMTQSPSSLSASVGDRVTITCRASQSIRNYLNWYQQKPGKAPKLLIYEASRLQSGVPSRFSGSGSGTDFTLTISSLQPEDFATYYCQQSYSAPPTFGPGTKVDIK
notes: as for B1
B18: TMPRSS4 Ab28 scFv (VH-VL) (scFv)
scFv: QVQLVQSGAEVKKPGASVKVSCKASGYTFTGYYMHWVRQAPGQGLEWMGWMNPNSGNTGYAQKFQGRVTMTRDTSTSTVYMELSSLRSEDTAVYYCARLRAKGGGFDYWGQGTLVTVSSGGGGSGGGGSGGGGSDIQMTQSPSSLSASVGDRVTITCRASQGIGNYLAWYQQKPGKAPKLLIYAASSLESGVPSRFSGSGSGTDFTLTISSLQPEDFATYYCQQGYRFPPTFGPGTKVDIK
notes: as for B1
B19: TMPRSS4 Ab45 scFv (VH-VL) (scFv)
scFv: QVQLVQSGAEVKKPGASVKVSCKASGYTFSRWYMHWVRQAPGQGLEWMGRINPNSGGTNYAQKFQGRVTMTRDTSTSTVYMELSSLRSEDTAVYYCARVGGYGWFDPWGQGTLVTVSSGGGGSGGGGSGGGGSDIQMTQSPSSLSASVGDRVTITCQATQDIRNYLNWYQQKPGKAPKLLIYATSSLQSGVPSRFSGSGSGTDFTLTISSLQPEDFATYYCQQSYSPPYTFGQGTKLEIK
notes: as for B1
B20: TMPRSS4 Ab34 scFv (VH-VL) (scFv)
scFv: QVQLVQSGAEVKKPGASVKVSCKASGYTFTGYYIHWVRQAPGQGLEWMGWMNPHSGNTGYAQKFQGRVTMTRDTSTSTVYMELSSLRSEDTAVYYCAREGGRYSSGRLGYWGQGTLVTVSSGGGGSGGGGSGGGGSDIQMTQSPSSLSASVGDRVTITCRASQGISSWLAWYQQKPGKAPKLLIYAASTLQTGVPSRFSGSGSGTDFTLTISSLQPEDFATYYCQQSKSIPITFGGGTKVEIK
notes: as for B1

For this assay, the target named is T1, Human TMPRSS4 (Transmembrane protease, serine 4), wild type full length (human, UniProt Q9NRS4 1-437).
T1 construct: Type II membrane protein over-expressed on HEK293T cells (also endogenous on H1975 and LUDLU-1 cells); also called TMPRSS4 WT; HEK293T-TMPRSS4
T1 sequence (Q9NRS4 whole entry): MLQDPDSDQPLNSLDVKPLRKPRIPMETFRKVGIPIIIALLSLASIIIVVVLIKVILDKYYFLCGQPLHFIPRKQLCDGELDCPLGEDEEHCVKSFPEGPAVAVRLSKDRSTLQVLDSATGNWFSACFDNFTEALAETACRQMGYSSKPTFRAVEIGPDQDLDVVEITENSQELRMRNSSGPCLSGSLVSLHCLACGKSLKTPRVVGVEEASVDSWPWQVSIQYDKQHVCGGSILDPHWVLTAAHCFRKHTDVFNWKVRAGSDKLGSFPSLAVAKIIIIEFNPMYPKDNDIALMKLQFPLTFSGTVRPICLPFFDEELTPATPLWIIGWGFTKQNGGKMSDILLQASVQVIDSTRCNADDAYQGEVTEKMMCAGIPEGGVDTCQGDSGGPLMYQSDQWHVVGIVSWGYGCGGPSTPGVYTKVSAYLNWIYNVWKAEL
The assay can be described thus: flow cytometry, monoclonal phage on HEK293T-TMPRSS4 cells.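 Further: bound phage detected with a PE-labelled mouse anti-M13 monoclonal antibody, read by flow cytometry.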 In general terms: A flow cytometer gives signals particle by particle.
For B1, the binding result is listed as “binds”.

In the case of B2, the binding result was “binds”.

For the molecule B3, the binding result was “binds”.

Regarding B4, the binding result is listed as “binds”.

For B5, the binding result was “binds”.

B6: the binding result was “binds”.

Regarding B7, the binding result is recorded as “binds”.

For the molecule B8, the binding result is recorded as “binds”.

Turning to B9, the binding result is “binds”.

B10: the binding result is reported as “binds”.

With B11, the binding result is “binds”.

As for B12, the binding result is on record as “binds”.

With B13, the binding result is “binds”.

Take B14: the binding result was “binds”.

For the molecule B15, the binding result is “binds”.

For B16, the binding result was “binds”.

Take B17: the binding result is “binds”.

As for B18, the binding result is “binds”.

Turning to B19, the binding result is “binds”.

For the molecule B20, the binding result was “binds”.
